B1: PLK2 (parent)
chain: YAELGQCSVFPATDAPEQFISQVT

Variants of: B1
Experiment: protein stability index of a GFP-peptide fusion (GPS, HEK-293T) (PSI 1-6); higher = more stable
Details: c terminus: a fixed tail appended
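Note: lentivirally expressed fusions sorted by FACS into six bins by GFP to DsRed ratio, PSI derived from sequencing read proportions per bin multiplied by bin number.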

| Variant | protein stability index |
| --- | --- |
| YAELGQCSVYPATDAPEQFISQVT | 2.4 |
| YAELGQCSVKPATDAPEQFISQVT | 3.26 |
| YAELGQCSVTPATDAPEQFISQVT | 3.47 |
| YAELGQCSVIPATDAPEQFISQVT | 2.87 |
| YAELGQCSVWPATDAPEQFISQVT | 2.96 |
| YAELGQCSVGPATDAPEQFISQVT | 3.27 |
| YAELGQCSVDPATDAPEQFISQVT | 4.2 |
| YAELGQCSVNPATDAPEQFISQVT | 3.43 |
| YAELGQCSVPPATDAPEQFISQVT | 3.58 |
| YAELGQCSVQPATDAPEQFISQVT | 3.46 |
| YAELGQCSVSPATDAPEQFISQVT | 3.61 |
| YAELGQCSVAPATDAPEQFISQVT | 3.34 |
| YAELGQCSVMPATDAPEQFISQVT | 3.06 |
| YAELGQCSVHPATDAPEQFISQVT | 3.43 |
| YAELGQCSVEPATDAPEQFISQVT | 3.68 |
| YAELGQCSVLPATDAPEQFISQVT | 3.27 |
| YAELGQCSVVPATDAPEQFISQVT | 3.52 |
| YAELGQCSVCPATDAPEQFISQVT | 3.07 |
| YAELGQCSVRPATDAPEQFISQVT | 3.18 |
| YAELGQCSVFPATHAPEQFISQVT | 1.97 |
| YAELGQCSVFPATYAPEQFISQVT | 2.56 |
| YAELGQCSVFPATPAPEQFISQVT | 1.88 |
| YAELGQCSVFPATAAPEQFISQVT | 1.46 |
| YAELGQCSVFPATNAPEQFISQVT | 2.13 |

| Variant | protein stability index |
| --- | --- |
| YAELGQCSVFPATFAPEQFISQVT | 2.04 |
| YAELGQCSVFPATIAPEQFISQVT | 2.02 |
| YAELGQCSVFPATTAPEQFISQVT | 1.94 |
| YAELGQCSVFPATCAPEQFISQVT | 1.86 |
| YAELGQCSVFPATGAPEQFISQVT | 2 |
| YAELGQCSVFPATRAPEQFISQVT | 1.7 |
| YAELGQCSVFPATMAPEQFISQVT | 1.75 |
| YAELGQCSVFPATVAPEQFISQVT | 1.78 |
| YAELGQCSVFPATQAPEQFISQVT | 1.91 |
| YAELGQCSVFPATSAPEQFISQVT | 2.09 |
| YAELGQCSVFPATEAPEQFISQVT | 2.05 |
| YAELGQCSVFPATKAPEQFISQVT | 1.96 |
| YAELGQCSVFPATLAPEQFISQVT | 1.62 |
| YAELGQCDVFPATDAPEQFISQVT | 3.06 |
| YAELGQCAVFPATDAPEQFISQVT | 1.87 |
| YAELGQCEVFPATDAPEQFISQVT | 3.17 |
| YAELGQCCVFPATDAPEQFISQVT | 1.64 |
| YAELGQCHVFPATDAPEQFISQVT | 1.83 |
| YAELGQCVVFPATDAPEQFISQVT | 2 |
| YAELGQCIVFPATDAPEQFISQVT | 1.75 |
| YAELGQCMVFPATDAPEQFISQVT | 1.66 |
| YAELGQCWVFPATDAPEQFISQVT | 3.17 |
| YAELGQCKVFPATDAPEQFISQVT | 2.04 |
| YAELGQCFVFPATDAPEQFISQVT | 2.53 |

| Variant | protein stability index |
| --- | --- |
| YAELGQCGVFPATDAPEQFISQVT | 1.93 |
| YAELGQCLVFPATDAPEQFISQVT | 1.62 |
| YAELGQCQVFPATDAPEQFISQVT | 2.08 |
| YAELGQCNVFPATDAPEQFISQVT | 2.57 |
| YAELGQCYVFPATDAPEQFISQVT | 1.59 |
| YAELGQCPVFPATDAPEQFISQVT | 2.04 |
| YAELGQCTVFPATDAPEQFISQVT | 2.28 |
| YAELGQCRVFPATDAPEQFISQVT | 1.9 |
| YAELGQCSVFPATDAPAQFISQVT | 1.92 |
| YAELGQCSVFPATDAPNQFISQVT | 1.95 |
| YAELGQCSVFPATDAPGQFISQVT | 2.15 |
| YAELGQCSVFPATDAPHQFISQVT | 1.86 |
| YAELGQCSVFPATDAPIQFISQVT | 1.75 |
| YAELGQCSVFPATDAPKQFISQVT | 2.32 |
| YAELGQCSVFPATDAPFQFISQVT | 2.18 |
| YAELGQCSVFPATDAPLQFISQVT | 2.33 |
| YAELGQCSVFPATDAPPQFISQVT | 2.12 |
| YAELGQCSVFPATDAPMQFISQVT | 1.6 |
| YAELGQCSVFPATDAPCQFISQVT | 1.79 |
| YAELGQTSVFPATDAPEQFISQVT | 2.87 |
| YAELGQRSVFPATDAPEQFISQVT | 2.57 |
| YAELGQPSVFPATDAPEQFISQVT | 3.45 |
| YAELGQVSVFPATDAPEQFISQVT | 2.32 |
| YAELGQSSVFPATDAPEQFISQVT | 1.87 |

| Variant | protein stability index |
| --- | --- |
| YAELGQQSVFPATDAPEQFISQVT | 2.36 |
| YAELGQWSVFPATDAPEQFISQVT | 2.5 |
| YAELGQYSVFPATDAPEQFISQVT | 2.12 |
| YAELGQCSVFPATDPPEQFISQVT | 2.47 |
| YAELGQCSVFPATDSPEQFISQVT | 1.83 |
| YAELGQCSVFPATDKPEQFISQVT | 2.29 |
| YAELGQCSVFPATDCPEQFISQVT | 2 |
| YAELGQCSVFPATDVPEQFISQVT | 2.22 |
| YAELGQCSVFPATDYPEQFISQVT | 2.13 |
| YAELGQCSVFPATDLPEQFISQVT | 2.31 |
| YAELGQCSVFPATDDPEQFISQVT | 2.27 |
| YAELGQCSVFPATDNPEQFISQVT | 2.33 |
| YAELGQCSVFPATDFPEQFISQVT | 1.98 |
| YAELGQCSVFPATDQPEQFISQVT | 2.17 |
| YAELGQCSVFPATDGPEQFISQVT | 2.38 |
| YAELGQCSVFPATDWPEQFISQVT | 2.29 |
| YAELGQCSVFPATDRPEQFISQVT | 2.21 |
| YAELGQCSVFPATDIPEQFISQVT | 1.96 |
| YAELGQCSVFPATDMPEQFISQVT | 2.18 |
| YAELGQCSVFPATDHPEQFISQVT | 2.58 |
| YAELGQCSVFPATDEPEQFISQVT | 2.6 |
| YAELGQCSVFPATDTPEQFISQVT | 2.19 |
| YAELGQCSVFPATDASEQFISQVT | 2.33 |
| YAELGQCSVFPATDAHEQFISQVT | 1.58 |

| Variant | protein stability index |
| --- | --- |
| YAELGQCSVFPATDAIEQFISQVT | 1.74 |
| YAELGQCSVFPATDANEQFISQVT | 2.35 |
| YAELGQCSVFPATDADEQFISQVT | 2.53 |
| YAELGQCSVFPATDATEQFISQVT | 2.05 |
| YAELGQCSVFPATDAYEQFISQVT | 1.79 |
| YAELGQCSVFPATDAMEQFISQVT | 1.91 |
| YAELGQCSVFPATDAAEQFISQVT | 1.8 |
| YAELGQCSVFPATDAEEQFISQVT | 2.66 |
| YAELGQCSVFPATDALEQFISQVT | 1.84 |
| YAELGQCSVFPATDAFEQFISQVT | 1.64 |
| YAELGQCSVFPATDACEQFISQVT | 2.04 |
| YAELGQCSVFPATDAREQFISQVT | 1.84 |
| YAELGQCSVFPATDAQEQFISQVT | 2.44 |
| YAELGQCSVFPATDAWEQFISQVT | 2.84 |
| YAELGQCSVFPATDAKEQFISQVT | 1.87 |
| YAELGQCSVFPATDAGEQFISQVT | 1.89 |
| YAELGQCSVFPATDAVEQFISQVT | 1.66 |
| YAELGQCSVFPANDAPEQFISQVT | 2.5 |
| YAELGQCSVFPAYDAPEQFISQVT | 1.62 |
| YAELGQCSVFPAIDAPEQFISQVT | 1.81 |
| YAELGQCSVFPAFDAPEQFISQVT | 1.33 |
| YAELGQCSVFPAMDAPEQFISQVT | 2.11 |
| YAELGQCSVFPAPDAPEQFISQVT | 2.17 |
| YAELGQCSVFPAQDAPEQFISQVT | 2.57 |

| Variant | protein stability index |
| --- | --- |
| YAELGQCSVFPAGDAPEQFISQVT | 2.32 |
| YAELGQCSVFPACDAPEQFISQVT | 1.97 |
| YAELGQCSVFPADDAPEQFISQVT | 2.8 |
| YAELGQCSVFPALDAPEQFISQVT | 1.92 |
| YAELGQCSVFPAKDAPEQFISQVT | 2 |
| YAELGQCSVFPASDAPEQFISQVT | 2.37 |
| YAELGQCSVFPAVDAPEQFISQVT | 2.2 |
| YAELGQCSVFPARDAPEQFISQVT | 2.22 |
| YAELGQCSVFPAADAPEQFISQVT | 2.49 |
| YAELGQCSVFPAHDAPEQFISQVT | 2.2 |
| YAELGQCSVFPAEDAPEQFISQVT | 3.45 |
| YAELGQCSVFPAWDAPEQFISQVT | 1.89 |
| YAELGQCSVFYATDAPEQFISQVT | 2.31 |
| YAELGQCSVFWATDAPEQFISQVT | 2.82 |
| YAELGQCSVFNATDAPEQFISQVT | 2.2 |
| YAELGQCSVFMATDAPEQFISQVT | 2.62 |
| YAELGQCSVFIATDAPEQFISQVT | 3.28 |
| YAELGQCSVFSATDAPEQFISQVT | 2.56 |
| YAELGQCSVFAATDAPEQFISQVT | 2.14 |
| YAELGQCSVFQATDAPEQFISQVT | 1.91 |
| YAELGQCSVFVATDAPEQFISQVT | 2.33 |
| YAELGQCSVFRATDAPEQFISQVT | 2.21 |
| YAELGQCSVFEATDAPEQFISQVT | 1.33 |
| YAELGQCSVFDATDAPEQFISQVT | 1.64 |

| Variant | protein stability index |
| --- | --- |
| YAELGQCSVFKATDAPEQFISQVT | 2.68 |
| YAELGQCSVFGATDAPEQFISQVT | 3.1 |
| YAELGQCSVFHATDAPEQFISQVT | 2.32 |
| YAELGQCSVFFATDAPEQFISQVT | 3.39 |
| YAELGQCSVFLATDAPEQFISQVT | 2.03 |
| YAELGQCSVFTATDAPEQFISQVT | 3.65 |
| YAELGQCSVFPDTDAPEQFISQVT | 2.81 |
| YAELGQCSVFPQTDAPEQFISQVT | 2.6 |
| YAELGQCSVFPCTDAPEQFISQVT | 1.87 |
| YAELGQCSVFPSTDAPEQFISQVT | 2.1 |
| YAELGQCSVFPHTDAPEQFISQVT | 1.93 |
| YAELGQCSVFPMTDAPEQFISQVT | 1.72 |
| YAELGQCSVFPETDAPEQFISQVT | 3.42 |
| YAELGQCSVFPKTDAPEQFISQVT | 2.13 |
| YAELGQCSVFPYTDAPEQFISQVT | 1.95 |
| YAELGQCSVFPWTDAPEQFISQVT | 2.14 |
| YAELGQCSVFPITDAPEQFISQVT | 2.07 |
| YAELGQCSVFPLTDAPEQFISQVT | 1.66 |
| YAELGQCSVFPFTDAPEQFISQVT | 2.18 |
| YAELGQCSVFPPTDAPEQFISQVT | 2.47 |
| YAELGQCSVFPTTDAPEQFISQVT | 2.22 |
| YAELGQCSVFPNTDAPEQFISQVT | 2.33 |
| YAELGQCSVFPVTDAPEQFISQVT | 2.1 |
| YAELGQCSVFPRTDAPEQFISQVT | 1.63 |

| Variant | protein stability index |
| --- | --- |
| YAELGQCSVFPGTDAPEQFISQVT | 2.39 |
| YAELGQCSFFPATDAPEQFISQVT | 1.67 |
| YAELGQCSEFPATDAPEQFISQVT | 3.64 |
| YAELGQCSMFPATDAPEQFISQVT | 1.98 |
| YAELGQCSSFPATDAPEQFISQVT | 3.34 |
| YAELGQCSHFPATDAPEQFISQVT | 2.69 |
| YAELGQCSQFPATDAPEQFISQVT | 2.71 |
| YAELGQCSLFPATDAPEQFISQVT | 1.98 |
| YAELGQCSAFPATDAPEQFISQVT | 2.36 |
| YAELGQCSGFPATDAPEQFISQVT | 2.27 |
| YAELGQCSIFPATDAPEQFISQVT | 2.62 |
| YAELGQCSYFPATDAPEQFISQVT | 2.02 |
| YAELGQCSWFPATDAPEQFISQVT | 2.5 |
| YAELGQCSPFPATDAPEQFISQVT | 2.41 |
| YAELGQCSCFPATDAPEQFISQVT | 2.42 |
| YAELGQCSRFPATDAPEQFISQVT | 2.17 |
| YAELGQCSNFPATDAPEQFISQVT | 3.02 |
| YAELGQCSKFPATDAPEQFISQVT | 2.88 |
| YAELGQCSDFPATDAPEQFISQVT | 4.25 |
| YAELGQCSTFPATDAPEQFISQVT | 3.12 |

From the supplement of paper PMC10567573
